Laboratory results reported in article doi:10.1101/2025.05.15.654345.

Biological target: human IFITM3 (untagged; interferon-induced transmembrane protein 3) (UniProt Q01628)
Assay: co-immunoprecipitation (anti-HA IP, anti-IFITM3 immunoblot, band ratio)
Settings: HEK293T co-transfected with pCMV-IFITM3 (0.50 μg) and pBJ-97ZA Nef-HA WT or mutant (0.25 μg); parent: 100

Sequence of UniProt Q01628 (Q01628 whole entry): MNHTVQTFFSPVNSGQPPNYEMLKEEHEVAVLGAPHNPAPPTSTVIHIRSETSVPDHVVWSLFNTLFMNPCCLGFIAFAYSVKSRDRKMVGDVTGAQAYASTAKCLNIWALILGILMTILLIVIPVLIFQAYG

97ZA013 Nef-HA (HIV-1 clade C primary isolate), wild type N163T; C164S
percent of parent (% (IFITM3/HA ratio, WT = 100)): 217

97ZA013 Nef-HA (HIV-1 clade C primary isolate), wild type G2A
percent of parent (% (IFITM3/HA ratio, WT = 100)): 1

97ZA013 Nef-HA (HIV-1 clade C primary isolate), wild type M169V; Q171L
percent of parent (% (IFITM3/HA ratio, WT = 100)): 244

97ZA013 Nef-HA (HIV-1 clade C primary isolate), wild type S152D; E153K
percent of parent (% (IFITM3/HA ratio, WT = 100)): 42

97ZA013 Nef-HA (HIV-1 clade C primary isolate), wild type R17A; R19A; R21A; R22A
percent of parent (% (IFITM3/HA ratio, WT = 100)): 16

97ZA013 Nef-HA (HIV-1 clade C primary isolate), wild type E153K
percent of parent (% (IFITM3/HA ratio, WT = 100)): 73

97ZA013 Nef-HA (HIV-1 clade C primary isolate), wild type L164A; L165A
percent of parent (% (IFITM3/HA ratio, WT = 100)): 87

97ZA013 Nef-HA (HIV-1 clade C primary isolate), wild type M20A
percent of parent (% (IFITM3/HA ratio, WT = 100)): 124

97ZA013 Nef-HA (HIV-1 clade C primary isolate), wild type R192F; R193H
percent of parent (% (IFITM3/HA ratio, WT = 100)): 188
